Measured values reported in patent publication US20210361776A1 (Seagen, published 2021).
Like-named read-outs stand apart in the source and are kept apart here.

B1: hGPC3-1 HCLB (antibody, V domains shown)
VH: EVQLVQSGAEVKKPGATVKISCKASGYTFTDYEMHWVQQAPGKGLEWIGGIDPETGGTAYNQKFKGRATLTADKSTDTAYMELSSLRSEDTAVYYCGRYYSFAYWGQGTLVTVSS
VL: DVVMTQSPLSLPVTLGQPASISCRSSQSIVHSNGNTYLQWFQQRPGQSPRLLIYKVSNRFSGVPDRFSGSGSGTDFTLKISRVEAEDVGVYYCFQVSHVPYTFGQGTKLEIK
notes: Kabat positions
B2: hGPC3-1ec (HBLE) (antibody, V domains shown)
VH: EVQLVQSGAEVKKPGATVKISCKVSGYTFTDYEMHWVQQAPGKGLEWMGGIDPETGGTAYNQKFKGRVTLTADKSTDTAYMELSSLRSEDTAVYYCGRYYSFAYWGQGTLVTVSS
VL: DVVMTQSPLSLPVTLGQPASISCRSSQSIVHSNANTYLQWFQQRPGQSPRLLIYKVSNRFSGVPDRFSGSGSGTDFTLKISRVEAEDVGVYYCFQVSHVPYTFGQGTKLEIK
notes: HBLE variable regions on IgG1 with a cysteine substitution at position 239 of the heavy chain (S239C, EU index); 'ec' marks this; Tested unconjugated; also called humanized GPC3-1ec
B3: hGPC3-1 HALC (antibody, V domains shown)
VH: QVQLVQSGAEVKKPGASVKVSCKASGYTFTDYEMHWVRQAPGQGLEWIGGIDPETGGTAYNQKFKGRATLTADTSTSTAYMELRSLRSDDTAVYYCARYYSFAYWGQGTLVTVSS
VL: DVVMTQSPLSLPVTLGQPASISCRSSQSIVHSNGNTYLQWFQQRPGQSPKLLIYKVSNRFSGVPDRFSGSGSGTDFTLKISRVEAEDVGVYYCFQVSHVPYTFGQGTKLVMK
notes: Kabat positions
B4: hGPC3-1 HDLC (antibody, V domains shown)
VH: EVQLVQSGAEVKKPGATVKISCKASGYTFTDYEMHWVKQAPGKGLEWIGGIDPETGGTAYNQKFKGKATLTADKSTDTAYMELSSLRSEDTAVYYCGRYYSFAYWGQGTLVTVSS
VL: DVVMTQSPLSLPVTLGQPASISCRSSQSIVHSNGNTYLQWFQQRPGQSPKLLIYKVSNRFSGVPDRFSGSGSGTDFTLKISRVEAEDVGVYYCFQVSHVPYTFGQGTKLVMK
notes: Kabat positions
B5: hGPC3-1 HALB (antibody, V domains shown)
VH: QVQLVQSGAEVKKPGASVKVSCKASGYTFTDYEMHWVRQAPGQGLEWIGGIDPETGGTAYNQKFKGRATLTADTSTSTAYMELRSLRSDDTAVYYCARYYSFAYWGQGTLVTVSS
VL: DVVMTQSPLSLPVTLGQPASISCRSSQSIVHSNGNTYLQWFQQRPGQSPRLLIYKVSNRFSGVPDRFSGSGSGTDFTLKISRVEAEDVGVYYCFQVSHVPYTFGQGTKLEIK
notes: Kabat position
B6: hGPC3-1 HBLB (antibody, V domains shown)
VH: EVQLVQSGAEVKKPGATVKISCKVSGYTFTDYEMHWVQQAPGKGLEWMGGIDPETGGTAYNQKFKGRVTLTADKSTDTAYMELSSLRSEDTAVYYCGRYYSFAYWGQGTLVTVSS
VL: DVVMTQSPLSLPVTLGQPASISCRSSQSIVHSNGNTYLQWFQQRPGQSPRLLIYKVSNRFSGVPDRFSGSGSGTDFTLKISRVEAEDVGVYYCFQVSHVPYTFGQGTKLEIK
notes: Kabat position
B7: hGPC3-1 HCLC (antibody, V domains shown)
VH: EVQLVQSGAEVKKPGATVKISCKASGYTFTDYEMHWVQQAPGKGLEWIGGIDPETGGTAYNQKFKGRATLTADKSTDTAYMELSSLRSEDTAVYYCGRYYSFAYWGQGTLVTVSS
VL: DVVMTQSPLSLPVTLGQPASISCRSSQSIVHSNGNTYLQWFQQRPGQSPKLLIYKVSNRFSGVPDRFSGSGSGTDFTLKISRVEAEDVGVYYCFQVSHVPYTFGQGTKLVMK
notes: Kabat positions
B8: hGPC3-1 HBLB-V (antibody, V domains shown)
VH: EVQLVQSGAEVKKPGATVKISCKVSGYTFTDYEMHWVQQAPGKGLEWMGGIDPETGGTAYNQKFKGRVTLTADKSTDTAYMELSSLRSEDTAVYYCGRYYSFAYWGQGTLVTVSS
VL: DVVMTQSPLSLPVTLGQPASISCRSSQSIVHSNVNTYLQWFQQRPGQSPRLLIYKVSNRFSGVPDRFSGSGSGTDFTLKISRVEAEDVGVYYCFQVSHVPYTFGQGTKLEIK
notes: Kabat position
B9: hGPC3-1 HBLA (antibody, V domains shown)
VH: EVQLVQSGAEVKKPGATVKISCKVSGYTFTDYEMHWVQQAPGKGLEWMGGIDPETGGTAYNQKFKGRVTLTADKSTDTAYMELSSLRSEDTAVYYCGRYYSFAYWGQGTLVTVSS
VL: DVVMTQSPLSLPVTLGQPASISCRSSQSIVHSNGNTYLQWFQQRPGQSPRRLIYKVSNRFSGVPDRFSGSGSGTDFTLKISRVEAEDVGVYYCFQVSHVPYTFGQGTKLEIK
notes: Kabat positions
B10: hGPC3-1 HBLC (antibody, V domains shown)
VH: EVQLVQSGAEVKKPGATVKISCKVSGYTFTDYEMHWVQQAPGKGLEWMGGIDPETGGTAYNQKFKGRVTLTADKSTDTAYMELSSLRSEDTAVYYCGRYYSFAYWGQGTLVTVSS
VL: DVVMTQSPLSLPVTLGQPASISCRSSQSIVHSNGNTYLQWFQQRPGQSPKLLIYKVSNRFSGVPDRFSGSGSGTDFTLKISRVEAEDVGVYYCFQVSHVPYTFGQGTKLVMK
notes: Kabat positions
B11: hGPC3-1 HDLB (antibody, V domains shown)
VH: EVQLVQSGAEVKKPGATVKISCKASGYTFTDYEMHWVKQAPGKGLEWIGGIDPETGGTAYNQKFKGKATLTADKSTDTAYMELSSLRSEDTAVYYCGRYYSFAYWGQGTLVTVSS
VL: DVVMTQSPLSLPVTLGQPASISCRSSQSIVHSNGNTYLQWFQQRPGQSPRLLIYKVSNRFSGVPDRFSGSGSGTDFTLKISRVEAEDVGVYYCFQVSHVPYTFGQGTKLEIK
notes: Kabat positions
B12: hGPC3-1 HBLB-Q (antibody, V domains shown)
VH: EVQLVQSGAEVKKPGATVKISCKVSGYTFTDYEMHWVQQAPGKGLEWMGGIDPETGGTAYNQKFKGRVTLTADKSTDTAYMELSSLRSEDTAVYYCGRYYSFAYWGQGTLVTVSS
VL: DVVMTQSPLSLPVTLGQPASISCRSSQSIVHSQGNTYLQWFQQRPGQSPRLLIYKVSNRFSGVPDRFSGSGSGTDFTLKISRVEAEDVGVYYCFQVSHVPYTFGQGTKLEIK
notes: Kabat positions
B13: hGPC3-1 HBLE (antibody, V domains shown)
VH: EVQLVQSGAEVKKPGATVKISCKVSGYTFTDYEMHWVQQAPGKGLEWMGGIDPETGGTAYNQKFKGRVTLTADKSTDTAYMELSSLRSEDTAVYYCGRYYSFAYWGQGTLVTVSS
VL: DVVMTQSPLSLPVTLGQPASISCRSSQSIVHSNANTYLQWFQQRPGQSPRLLIYKVSNRFSGVPDRFSGSGSGTDFTLKISRVEAEDVGVYYCFQVSHVPYTFGQGTKLEIK
notes: Only variable regions are tied to the antibody; also called lead humanized GPC3-1 antibody
B14: hGPC3-1 HDLA (antibody, V domains shown)
VH: EVQLVQSGAEVKKPGATVKISCKASGYTFTDYEMHWVKQAPGKGLEWIGGIDPETGGTAYNQKFKGKATLTADKSTDTAYMELSSLRSEDTAVYYCGRYYSFAYWGQGTLVTVSS
VL: DVVMTQSPLSLPVTLGQPASISCRSSQSIVHSNGNTYLQWFQQRPGQSPRRLIYKVSNRFSGVPDRFSGSGSGTDFTLKISRVEAEDVGVYYCFQVSHVPYTFGQGTKLEIK
notes: Kabat positions
B15: hGPC3-1 HCLA (antibody, V domains shown)
VH: EVQLVQSGAEVKKPGATVKISCKASGYTFTDYEMHWVQQAPGKGLEWIGGIDPETGGTAYNQKFKGRATLTADKSTDTAYMELSSLRSEDTAVYYCGRYYSFAYWGQGTLVTVSS
VL: DVVMTQSPLSLPVTLGQPASISCRSSQSIVHSNGNTYLQWFQQRPGQSPRRLIYKVSNRFSGVPDRFSGSGSGTDFTLKISRVEAEDVGVYYCFQVSHVPYTFGQGTKLEIK
notes: Kabat positions
B16: hGPC3-1 HBLD (antibody, V domains shown)
VH: EVQLVQSGAEVKKPGATVKISCKVSGYTFTDYEMHWVQQAPGKGLEWMGGIDPETGGTAYNQKFKGRVTLTADKSTDTAYMELSSLRSEDTAVYYCGRYYSFAYWGQGTLVTVSS
VL: DVVMTQSPLSLPVTLGQPASISCRSSQSIVHSDGNTYLQWFQQRPGQSPRLLIYKVSNRFSGVPDRFSGSGSGTDFTLKISRVEAEDVGVYYCFQVSHVPYTFGQGTKLEIK
notes: Kabat positions
B17: murine GPC3-1 antibody (antibody, V domains shown)
VH: QVQLQQSGAELVRPGASVTLSCKASGYTFTDYEMHWVKQTPVHGLEWIGGIDPETGGTAYNQKFKGKATLTADKSSSTAYMDLRSLTSEDSAVYYCGRYYSFAYWGQGTLVTVSA
VL: DVLMTQTPLSLPLSLGDQASISCRSSQSIVHSNGNTYLQWFLQKPGQSPKLLIYKVSNRFSGVPDRFSGSGSGTDFTLKIGRVEAEDLGVYYCFQVSHVPYTFGGGTKLVMK
notes: Murine hybridoma IgG; also called mGPC3-1

Assays:
[1] = molecular target: T1, human Glypican 3 (GPC3) on GPC3-positive cells (human, UniProt P51654 25-554); experiment: competition with AlexaFluor-488 labeled mGPC3-1 on GPC3-positive cells, flow cytometry
T1 construct: whole, on cells; the methods say only 'GPC3-positive cells'; also called hGPC3
T1 sequence (P51654 25-554 limits assumed): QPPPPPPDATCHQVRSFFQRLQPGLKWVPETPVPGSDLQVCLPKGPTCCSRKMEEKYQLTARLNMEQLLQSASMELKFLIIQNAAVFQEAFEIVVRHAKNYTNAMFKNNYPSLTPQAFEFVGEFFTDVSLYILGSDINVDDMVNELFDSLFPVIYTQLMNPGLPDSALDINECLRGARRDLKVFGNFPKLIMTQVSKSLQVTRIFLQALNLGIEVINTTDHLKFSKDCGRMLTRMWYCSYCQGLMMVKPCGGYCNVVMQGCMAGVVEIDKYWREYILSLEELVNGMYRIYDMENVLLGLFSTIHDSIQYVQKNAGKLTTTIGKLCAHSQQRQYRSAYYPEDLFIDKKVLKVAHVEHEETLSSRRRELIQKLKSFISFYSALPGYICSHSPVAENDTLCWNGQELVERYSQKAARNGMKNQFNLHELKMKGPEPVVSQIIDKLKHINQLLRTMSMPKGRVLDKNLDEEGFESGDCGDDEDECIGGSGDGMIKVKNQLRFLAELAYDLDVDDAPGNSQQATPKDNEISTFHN
Protocol: (§1) Cells were centrifuged, washed 3 times with PBS, and resuspended in 125 μL of a PBS+2% FBS solution. […] The EC50 was extrapolated by fitting the data to a sigmoidal dose-response curve with variable slope.

[2] = molecular target: T2, Human GPC3 (hGPC3 GP3-H5258, AcroBiosystems), biotinylated (human, UniProt P51654 25-559, biotinylated with Pierce NHS-LC-LC-Biotin at 1.5:1 biotin/protein ratio); experiment: BLI/SPR steady state: 600 second maximum response against concentration, half maximal binding (FIG. 6); binding affinity from FIG. 6, not the bivalent kinetic fit
T2 construct: Bought protein; also called immobilized hGPC3
T2 sequence (P51654 25-559 limits assumed): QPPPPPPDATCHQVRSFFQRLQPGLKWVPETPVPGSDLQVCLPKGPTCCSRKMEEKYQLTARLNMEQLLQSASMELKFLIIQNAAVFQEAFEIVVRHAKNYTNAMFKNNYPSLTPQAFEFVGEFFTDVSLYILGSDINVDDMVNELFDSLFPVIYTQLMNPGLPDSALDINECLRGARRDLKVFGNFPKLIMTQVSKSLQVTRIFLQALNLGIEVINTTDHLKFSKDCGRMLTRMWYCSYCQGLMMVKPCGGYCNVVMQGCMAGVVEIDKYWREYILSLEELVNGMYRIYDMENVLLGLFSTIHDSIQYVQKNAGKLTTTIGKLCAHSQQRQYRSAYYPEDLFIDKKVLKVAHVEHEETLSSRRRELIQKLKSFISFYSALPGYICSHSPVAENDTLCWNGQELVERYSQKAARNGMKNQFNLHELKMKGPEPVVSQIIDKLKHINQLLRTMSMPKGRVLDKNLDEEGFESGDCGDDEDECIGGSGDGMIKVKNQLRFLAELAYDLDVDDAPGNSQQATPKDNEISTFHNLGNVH
Protocol: (Left) Multiple sensorgrams represent several concentrations (400, 160, 64, 25.6, 10.2, 4.1, and 1.64 nM) of hGPC3-1ec associating with immobilized hGPC3. (Right) The KD was determined by plotting the 600 second maximum response for each concentration and was defined by half maximal binding.
(§2) Human GPC3 (hGPC3 GP3-H5258) was purchased from AcroBiosystems and biotinylated using Pierce NHS-LC-LC-Biotin at a molar ratio of 1.5:1 biotin/protein ratio. Biolayer interferometry (BLI) was performed on an Octet Red 384 system (ForteBio) with High Precision Streptavidin (SAX) Biosensors and GPC3 as the probe using hGPC3-1ec as the analyte.

[3] = molecular target: T2, Human GPC3 (hGPC3 GP3-H5258, …); experiment: BLI (Octet Red 384), biotinylated hGPC3 on SAX biosensors, hGPC3-1ec as analyte, bivalent binding, 1:1 fit, association 600 sec; bivalent binding, kinetic 1:1 fit, association of 600 sec
Protocol: as §2

[4] = molecular target: T2, Human GPC3 (hGPC3 GP3-H5258, …); experiment: BLI (Octet Red 384), biotinylated hGPC3 on SAX biosensors, hGPC3-1ec as analyte, bivalent binding, 1:1 fit; bivalent binding, kinetic 1:1 fit (kdiss/kon)
Protocol: as §2

[5] = molecular target: T2, Human GPC3 (hGPC3 GP3-H5258, …); experiment: BLI (Octet Red 384), biotinylated hGPC3 on SAX biosensors, hGPC3-1ec as analyte, bivalent binding, 1:1 fit, dissociation 1800 sec; bivalent binding, kinetic 1:1 fit, disassociation of 1800 sec
Protocol: as §2

[6] = molecular target: T1, human Glypican 3 (GPC3) on …; experiment: competition with AlexaFluor-488 labeled mGPC3-1 on GPC3-positive cells, flow cytometry; remark: listed apart in the source
Protocol: as §1

Binder	EC50 [1]	also measured
B1	18 nM	
B2		Kd [2]: 14 nM; kon [3]: 113000 M⁻¹ s⁻¹; Kd [4]: 0.204 nM; koff [5]: 2.3e-05 s⁻¹
B3	63 nM	
B4	13 nM	
B5	91 nM	
B6	14 nM	EC50 [6]: 3 nM
B7	19 nM	
B8		EC50 [6]: 4 nM
B9	203 nM	
B10	25 nM	
B11	10 nM	
B12		EC50 [6]: 7 nM
B13		EC50 [6]: 3 nM
B14	149 nM	
B15	76 nM	
B16		EC50 [6]: 74 nM
B17	9 nM	
